In patent US20120321591A1 (COVX TECHNOLOGIES IRELAND, published 2012):
Where two headings read alike, the source gives them in different places. Bridges are numbered along the chain shown (N, C = ends).

What was measured:
[1] = molecular target: T1, recombinant human VEGF165 (human, UniProt P15692-4 27-191); experiment: competition ELISA: VEGF165 binding to coated VEGFR2/Fc; normalized value
T1 construct: also called rhVEGF165

[2] = molecular target: T1, recombinant human VEGF165; experiment: as above; remark: listed apart in the source

T1 sequence (P15692 other isoform, or with tags, fused parts or gaps limits assumed): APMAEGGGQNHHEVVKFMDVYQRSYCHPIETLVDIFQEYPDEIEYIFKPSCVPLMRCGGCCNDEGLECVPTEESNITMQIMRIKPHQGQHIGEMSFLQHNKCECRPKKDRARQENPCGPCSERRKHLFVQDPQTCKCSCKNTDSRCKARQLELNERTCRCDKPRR

Ac-VEPNCDIHVMWEWECFERL-NH2 (disulfide 5-15 (inferred)) [[VEGF-Peptide] SEQ ID NO:34]
IC50 [1]: 188 nM
IC50 [2]: 188 nM
